Here are results for 91 sequences from the supplement of paper PMC9112550, “Optimization of the antimicrobial peptide Bac7 by deep mutational scanning” (BMC Biology, 2022).

The subject of this data set is Escherichia coli TOP10. In words: shrunken log2 fold change of peptide-encoding DNA abundance (4.5 h post-induction vs induction); higher = less antimicrobial activity (less host growth inhibition). Particulars: time post-induction: 4.5 h; library: site-saturation at positions 5, 18, 19, 20.
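Note: peptides expressed intracellularly from a pBAD plasmid library in pooled LB shake-flask culture, induced with 0.3% L-arabinose, DNA abundance read by NGS, three biological replicates, DESeq2 with apeglm shrinkage.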

In the case of RRIRQRPPRLPRPRPRPCENPRP, the “shrunken log2 fold change” value was determined as 0.0237.
For the sequence RRIRERPPRLPRPRPRPEEYPRP, the “shrunken log2 fold change” value was -0.4.
For the sequence RRIRLRPPRLPRPRPRPEVVPRP, the “shrunken log2 fold change” value is 0.0493.
On to RRIRIRPPRLPRPRPRPLHIPRP, for which the “shrunken log2 fold change” value is -1.21.
The value for RRIRKRPPRLPRPRPRPLIFPRP was -0.0683; that for RRIRTRPPRLPRPRPRPGIRPRP was -0.0147; that for RRIRLRPPRLPRPRPRPCSPPRP was -0.0527.
As for RRIRDRPPRLPRPRPRPYKMPRP, the “shrunken log2 fold change” value is -0.17.
The value for RRIRVRPPRLPRPRPRPIFVPRP was -0.0998.
For RRIRRRPPRLPRPRPRPMYNPRP, the “shrunken log2 fold change” value is -0.137.
The value for RRIRRRPPRLPRPRPRPKVRPRP was 0.111.
In the case of RRIRERPPRLPRPRPRPCRTPRP, the “shrunken log2 fold change” value was -0.203.
The value for RRIRARPPRLPRPRPRPAHQPRP was 0.568.
RRIRERPPRLPRPRPRPNFMPRP: the “shrunken log2 fold change” value was -0.178.
As to RRIRHRPPRLPRPRPRPGMYPRP, the “shrunken log2 fold change” value is -0.298.
On to RRIRMRPPRLPRPRPRPVKDPRP, for which the “shrunken log2 fold change” value was 0.0812.
With RRIRGRPPRLPRPRPRPWKFPRP, the “shrunken log2 fold change” value was -0.211.
The value for RRIRARPPRLPRPRPRPHLCPRP was 0.202; that for RRIRMRPPRLPRPRPRPDVLPRP was -0.123.
The value for RRIRQRPPRLPRPRPRPKGRPRP was 0.0377; that for RRIRSRPPRLPRPRPRPMNGPRP was -0.205.
The value for RRIRMRPPRLPRPRPRPDMRPRP was 0.0245; that for RRIRSRPPRLPRPRPRPRNMPRP was -0.53; that for RRIRYRPPRLPRPRPRPIRIPRP was -0.144.
Regarding RRIRCRPPRLPRPRPRPTKNPRP, the “shrunken log2 fold change” value is 0.142.
Consider RRIRSRPPRLPRPRPRPVYHPRP, for which the “shrunken log2 fold change” value turned out to be 0.0286.
The value for RRIRGRPPRLPRPRPRPIGGPRP was 0.0174; that for RRIRFRPPRLPRPRPRPQWQPRP was -0.08; that for RRIRNRPPRLPRPRPRPGRIPRP was -0.0181.
The value for RRIRVRPPRLPRPRPRPNMFPRP was -0.103; that for RRIRYRPPRLPRPRPRPKAIPRP was -0.497; that for RRIRRRPPRLPRPRPRPMDQPRP was 0.132.
The value for RRIRYRPPRLPRPRPRPTCAPRP was -0.0853.
As for RRIRSRPPRLPRPRPRPHKAPRP, the “shrunken log2 fold change” value was -0.1.
On to RRIRLRPPRLPRPRPRPYGWPRP, for which the “shrunken log2 fold change” value is -0.265.
As for RRIRGRPPRLPRPRPRPEGQPRP, the “shrunken log2 fold change” value was 1.13.
RRIRARPPRLPRPRPRPLELPRP: the “shrunken log2 fold change” value was 0.386.
The value for RRIRARPPRLPRPRPRPGGKPRP was 0.563.
The value for RRIRRRPPRLPRPRPRPVNWPRP was 0.439; that for RRIRARPPRLPRPRPRPHVYPRP was -0.0492.
In the case of RRIRKRPPRLPRPRPRPAWDPRP, the “shrunken log2 fold change” value amounted to 0.497.
The value for RRIRKRPPRLPRPRPRPDDEPRP was 0.143; that for RRIRTRPPRLPRPRPRPYFDPRP was -0.738; that for RRIRYRPPRLPRPRPRPRMMPRP was 0.0163.
The value for RRIRHRPPRLPRPRPRPMVSPRP was -0.00841.
The value for RRIRVRPPRLPRPRPRPMSPPRP was 0.0872; that for RRIRWRPPRLPRPRPRPWMVPRP was 0.0468.
With RRIRFRPPRLPRPRPRPAFLPRP, the “shrunken log2 fold change” value was -0.17.
The value for RRIRLRPPRLPRPRPRPWDEPRP was 0.066.
The value for RRIRKRPPRLPRPRPRPRTKPRP was 1.08; that for RRIRDRPPRLPRPRPRPPHSPRP was 0.279.
The value for RRIRIRPPRLPRPRPRPQSQPRP was -0.513; that for RRIRCRPPRLPRPRPRPWWTPRP was -0.383.
With RRIRMRPPRLPRPRPRPEDKPRP, the “shrunken log2 fold change” value amounted to 2.94.
As to RRIRLRPPRLPRPRPRPISPPRP, the “shrunken log2 fold change” value was -0.333.
Regarding RRIRIRPPRLPRPRPRPEVVPRP, the “shrunken log2 fold change” value turned out to be 0.00224.
The value for RRIRVRPPRLPRPRPRPLFEPRP was 0.109.
RRIRKRPPRLPRPRPRPTAGPRP: the “shrunken log2 fold change” value was found to be 0.581.
With RRIRSRPPRLPRPRPRPENLPRP, the “shrunken log2 fold change” value was 0.026.
On to RRIRARPPRLPRPRPRPRIVPRP, for which the “shrunken log2 fold change” value amounted to 0.547.
On to RRIRYRPPRLPRPRPRPRNVPRP, for which the “shrunken log2 fold change” value was -0.324.
Take RRIRNRPPRLPRPRPRPNYLPRP: the “shrunken log2 fold change” value is -0.354.
The value for RRIRWRPPRLPRPRPRPQFYPRP was -0.492.
In the case of RRIRRRPPRLPRPRPRPLWKPRP, the “shrunken log2 fold change” value was determined as 0.115.
The value for RRIRGRPPRLPRPRPRPMRAPRP was 1.74; that for RRIRFRPPRLPRPRPRPYDEPRP was -0.526.
Turning to RRIRQRPPRLPRPRPRPVLMPRP, the “shrunken log2 fold change” value was determined as 0.111.
The value for RRIRYRPPRLPRPRPRPRCVPRP was -0.276.
As to RRIRSRPPRLPRPRPRPKHQPRP, the “shrunken log2 fold change” value is 0.155.
The value for RRIRERPPRLPRPRPRPNKDPRP was -0.321; that for RRIRNRPPRLPRPRPRPHPIPRP was 0.033.
The value for RRIRQRPPRLPRPRPRPLSHPRP was -0.168; that for RRIRWRPPRLPRPRPRPAENPRP was 0.568; that for RRIRVRPPRLPRPRPRPHGMPRP was -0.582.
For the sequence RRIRYRPPRLPRPRPRPMTVPRP, the “shrunken log2 fold change” value is -0.0212.
For the sequence RRIRPRPPRLPRPRPRPCVHPRP, the “shrunken log2 fold change” value is -0.434.
For RRIRFRPPRLPRPRPRPIDSPRP, the “shrunken log2 fold change” value was -0.401.
For RRIRGRPPRLPRPRPRPCDVPRP, the “shrunken log2 fold change” value is -0.014.
The value for RRIRARPPRLPRPRPRPLMCPRP was 0.0392.
As for RRIRPRPPRLPRPRPRPTPAPRP, the “shrunken log2 fold change” value amounted to 0.618.
The value for RRIRMRPPRLPRPRPRPYKQPRP was -0.000436; that for RRIRQRPPRLPRPRPRPNLYPRP was -0.647.
In the case of RRIRMRPPRLPRPRPRPSLVPRP, the “shrunken log2 fold change” value was -0.252.
On to RRIRLRPPRLPRPRPRPTIAPRP, for which the “shrunken log2 fold change” value is -0.183.
RRIRYRPPRLPRPRPRPHTPPRP: the “shrunken log2 fold change” value was -0.346.
The value for RRIRPRPPRLPRPRPRPPYQPRP was 0.249.
The value for RRIRFRPPRLPRPRPRPPKMPRP was 0.436; that for RRIRDRPPRLPRPRPRPHEPPRP was 0.211; that for RRIRSRPPRLPRPRPRPLVMPRP was -0.316.
The value for RRIRSRPPRLPRPRPRPVVVPRP was 0.1; that for RRIRVRPPRLPRPRPRPMASPRP was -0.01.
